Assay results from the supplement of paper PMC9170038.

Tested on: MS2 coat protein
Experiment: apparent KD of MS2 coat protein, switch OFF state (with FMN for OFF switches, without FMN for ON switches); designed switch direction (-1 OFF switch, 1 ON switch): 1; higher = weaker reporter binding
Details: FMN input: 0 or 200 uM; Eterna round: R93 (includes R88 designs)
In short: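 Values are apparent KD, taken as the median for each design of fits to normalised binding curves from individual clusters. The designed RNA switches were transcribed on-chip from Illumina sequencing clusters and exposed to SNAP-549-labelled MS2 coat protein at twofold increasing amounts from 0.7 or 1.5 nM to 3 µM. Titration used 100 mM Tris-HCl pH 7.5, 80 mM KCl and 4 mM MgCl2, without or with constant ligand.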

Sequence | apparent KD of MS2 coat protein
AAUACACAUGGUCAGGAUAUCGCAGCUAGGACAUGAGGAUCACCCAUGUCGUACGUAAAAGUAAAUGAGAAGGGACAGGGUGACC [JR_SS002_Sub407] | 30 nM
GAAAAACAUGAGGAUCACCCAUGUGAGAAUAUGGGAGGAUAUACAAAGACGAAAGUCAAAGUAGAAGGCCUAAAAG [Mat - Same State 1 - Eli mod - D6] | 94.5 nM
GAAAAACAUGAGGAUCACCCAUGUAGAAAUAUGGAAGGAUAUACGAAGACGAAAGUCAAAGUAGAAGGUCUAAAAG [Garnet 96] | 19.5 nM
AUAAAUAAAAUCGAGGAUAUCCAAAAAAAAACAUGAGGAUCACCCAUGUAAAAGAAAAUAAUAUGGGAGAAGGCGAAAAAUAAAU [SS2 M 5] | 59.2 nM
AAUAUAUUAAGUGAGGAUAUCAAGAAAAAAACAUGAGGAUCACCCAUGUGGGAAACACGGUAGGGUGAGAAGGUACUUAAUAUAU [Samwise Clockwise 20 - Jieux - Same State 2] | 27.6 nM
UAUCAUUACACGAAGGAUAUCGAUAAUUGAACAUGAGGAUCACCCAUGUGAUAUAUUUUACAGUUCGAGAAGGUCGAGGGUGAAG [JR_SS002_Sub705] | 32.4 nM
GAAAAACAUGAGGAUCACCCAUGUGAGAAUAUGGGAGGAUAUACGAAGACGAGAGUCGAAGUAGAAGGCCUAAAAG [Mat - Same State 1 - Eli mod - 31] | 119 nM
AAAAUACAUGAGGAUCACCCAUGUGAGAAAAACGCAGGAUAUGCAAAAAAAAAAAAAAAAGCAGAAGGGUGAAAAA [SameState1-I] | 103 nM
AAAAGACAUGAGGAUCACCCAUGUCUUCGGACAUGAGGAUAUGUACAGACUUCGGUCUGUACAGAAGGCAUGAAAA [SS1 - 1065] | 48.3 nM
GUAAAACAUGAGGAUCACCCAUGUAGAAAUAUGGGAGGAUAUACGAAGACGAAAGUCAAAGUAGAAGGCCUAAAGU [Mat - Same State 1 - Eli mod - D111] | 54.9 nM
GGGAGGAAGAGAGAGGAUAUCCAAAGGAAAACAUGAGGAUCACCCAUGUAAAAGGUAGGAAAUUGGGAGAAGGCUCAAAAGAGGA [salish99-ss2-039] | 30.3 nM
ACGGCACAUGAGGAUCACCCAUGUGCCGAGAGGCGAGGAUAUCGAAAAAAAAAAAAAAAACGAGAAGGCGCGAGAA [SameState1NO] | 11.1 nM
AUAUGGGCCCAUCAGGAUAUGUUCGGCGGAACAUGAGGAUCACCCAUGUGACAAAAGACGCCCACGCAGAAGGGAUUACAGGCAA [Anistera] | 49.7 nM
GACGAACAUGAGGAUCACCCAUGUCAAAACGGACAAGGAUAUGUGUGGAAACCGUACUAUACAGAAGGUGUCUGUC [SS1 - 98] | 21.3 nM
AGAAAUAAACCUCAGGAUAUGGGUAAGAAAACAUGAGGAUCACCCAUGUAAAAGAAAAUAAAAAACCAGAAGGGAGAAAAUAAAG [Reversing G segment in JL's winner (80%) Variant 2] | 41.3 nM
AAAGACACAGUGCAGGAUAUGGUAAUAGUCACAUGAGGAUCACCCAUGUUCUUUUAUAAGAACGAUCAGAAGGGCGGUGAAAAAA [SameState2 Malc#12] | 295 nM
AAGAUACAUGAGGAUCACCCAUGUUAAGAGAGAUGAGGAUAUCCGAAUUAAUUAAAUUAAGGAGAAGGCAUGAAAA [LROPPY Same State 1 - v02_deltaG=2.1] | 26.9 nM
AGACAUAACAGAGAGGAUAUCCAAAAGAAAACAUGAGGAUCACCCAUGUGAAAGAAAAUAAAAUGGGAGAAGGCUCACAUACAGA [Topaz 37] | 39 nM
AGAAAUAAAAGAGAGGAUAUCCAAAACAAAACAUGAGGAUCACCCAUGUGAAAGAAAAUAAAAUGGGAGAAGGCUCAAAAUAAAG [Topaz 8] | 70.4 nM
AAGAAACAUGAGGAUCACCCAUGUAAAUUCGAGAGAGGAUAUCGUACAUGGAAGAUUCAACGAGAAGGCUCUAGAA [Same State 1.1 (Pariah 3, G boost at 31)] | 79.6 nM
GCUCCAGCUAGCAAGGAUAUGUAGGAUGCUACAUGAGGAUCACCCAUGUGCUGAAAUAAGUCCCGGCAGAAGGUGUGACUGGAGC [Quleorla] | 19.9 nM

Sequence | apparent KD of MS2 coat protein
AAAAUAAAAAGGCAGGAUAUCCAAAAUAAAACAUGAGGAUCACCCAUGUAAAUAAAAAUAAAGUGGGAGAAGGGUUAAAAAUAAAA [High Roller3] | 46.8 nM
CGAGAACAUGAGGAUCACCCAUGUAAUGAAUGGUCAGGAUAUGGAGAUAGAUGACAAGCGCCAGAAGGGACAUCAG [JR_SS001_Sub1001] | 53.9 nM
CGGAGACAUGAGGAUCACCCAUGUGAGAAGAGGCGAGGAUAUCGAAAGAAAGAAGAGAAACGAGAAGGCGCGAGCG [salish99-SS1-076] | 42.4 nM
AAGAAACAUGAGGAUCACCCAUGUGAGAUAAACACAGGAUAUGCGAAAAUAAACAAAUAAGCAGAAGGGUGAAGAA [Mat - Same State 1 - Tesla mod - 68] | 74.8 nM
AAAUAAAUGACUAAGGAUAUAUCAGAGAAAACAUGAGGAUCACCCAUGUAAUAAUAAAAAGGGUGAUAGAAGGUAGUCAACAAACA [Pariah 4 (MS2 Riboswitches - Same State 2)] | 154 nM
AUAACACAUGAGGAUCACCCAUGUAGAAACAAGUCAGGAUAUGCGACCUCAUGAAAUAAAGCAGAAGGGACACUAA [SS 1 Tesla 5] | 150 nM
AAGAAACAUGAGGAUCACCCAUGUAAGAUAAACACAGGAUAUGCGAAAAUAAACAAAGAAGCAGAAGGGUGAAGAA [Mat - Same State 1 - Tesla mod - 62] | 41.9 nM
AAAAAACAUGAGGAUCACCCAUGUCUUUUGACAUGAGGAUAUGUACAGACUUCGGUCUGUACAGAAGGCAUGAAAA [SS1 - 1029] | 432 nM
CGGAGACAUGAGGAUCACCCAUGUGAGAAGAGGCGAGGAUAUCGAAAGAAAGAAGAGAAACGAGAAGGCGCGAGGC [salish99-SS1-079] | 41.2 nM
AGAAAACAUGAGGAUCACCCAUGUCAAAUAAGUCAAGGAUAUGGGACUCCGCGAGAGUCGCCAGAAGGUGAGAAAA [Aatrara] | 49.5 nM
GAAAAACAUGAGGAUCACCCAUGUAAGAUAAACACAGGAUAUGCGAAAAGAAAGAAAGAAGCAGAAGGGUGAAGAA [Mat - Same State 1 - Tesla mod - 40] | 33.7 nM
AAAUAAAAAAGGGAGGAUAUUCAUGUGAAAACAUGAGGAUCACCCAUGUAAAAAAAUAAAAAUAAAAAGAAGGAAAAAUAAAAAA [SS2: 80 No MS2] | 151 nM
GGCUGCGUUGUGAAGGAUAUCCGCGUCUGGACAUGAGGAUCACCCAUGUAUACUUGGAUCGUGCAGGAGAAGGUCAAGGGUGAUU [JR_SS002_Sub1211] | 63.3 nM
AAGAAACAUGAGGAUCACCCAUGUAAGAUAAACACAGGAUAUGCGAAAAGAAAGAAAGAAGCAGAAGGGUGAAGAA [Mat - Same State 1 - Tesla mod - 39] | 41.7 nM
GGGAGACAUGAGGAUCACCCAUGUGAGAAGAGGCGAGGAUAUCGAAAGAAAGAAGAGAAACGAGAAGGCGCGAGCG [salish99-SS1-060] | 86.7 nM
AAAUAACAUGAGGAUCACCCAUGUUACAACUUUACAGGAUAUGUGGGUGAAAAUAGCAUGACAGAAGGGUACAGUA [SameState1 Malc#35] | 158 nM
AGUCCACAUGAGGAUCACCCAUGUCUGGAGAAGACAGGAUAUAAGGAAAAAAAAAAAAACUUAGAAGGGUCAAAAA [Bexeusisus] | 49.5 nM
CGGGAAGAGAGAGAGGAUAUCCAAAGGAAAACAUGAGGAUCACCCAUGUAGAAGGUAGGAAAUUGGGAGAAGGCUCAAGAGAGAG [salish99-ss2-134] | 33.7 nM
AUAAUAAUAAGAUAGGAUAUACUAAAGUAAACAUGAGGAUCACCCAUGUAAAGAAAAAAACUCAUGUAGAAGGGUCAUAAAUAAA [moonwalk 1] | 48.6 nM
GGAUAUAUACAGGAGGAUAUGAGAACAAAGACAUGAGGAUCACCCAUGUACAAAAGGUGGAACAAUCAGAAGGUCUAAACAACAAA [Thing 1 and Thing 2] | 49.7 nM
UUUAAUUACACGAAGGAUAUCGAUUUUCAGACAUGAGGAUCACCCAUGUAGUAGAUUUCCCUGUUCGAGAAGGUCGCGGGUGAAC [JR_SS002_Sub602] | 30.3 nM
